Reference: patent US11015206B2, “Compositions and methods comprising sequences having hydroxyphenylpyruvate dioxygenase (HPPD) activity” (PIONEER HI-BRED INTERNATIONAL, INC., priority 2014, dated 2021)
Residue numbers refer to the chain shown, from its start.

Tests used:
[1] = test system: 4-hydroxyphenylpyruvate dioxygenase (HPPD); test: OFF rate ratio: release of inhibitor from pre-formed enzyme-inhibitor complex; format: biochemical, Z. mays; settings: for OFF ratio (parameters with tembotrione): Table 5; for Insensitivity, isoxaflutole (DKN), Rate ratio OFF: inhibitor diketonitrile form of isoxaflutole (DKN); for Insensitivity, mesotrione, Rate ratio OFF: inhibitor mesotrione; for Insensitivity, sulcotrione, Rate ratio OFF: inhibitor sulcotrione; for Insensitivity, tembotrione, Rate ratio OFF: inhibitor tembotrione; for Insensitivity, topramezone, Rate ratio OFF: inhibitor topramezone
Procedure, shortened: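 Inhibitor release from pre-formed complex (enzyme 7.2 μM, inhibitor 8 μM, 1 h RT) tracked as accelerating HPPD activity at 320 nm over 12 min, coupled via 50 nM HGD with 100 μM HPP at pH 7. OFF rate ratio: steady-state velocity relative to uninhibited initial velocity.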

[2] = test system: 4-hydroxyphenylpyruvate dioxygenase (HPPD); test: ON rate ratio: HPPD reaction rate with vs without inhibitor in the 70 to 90 second interval; format: biochemical, Z. mays; settings: for ON ratio (parameters with tembotrione): Table 5; for Insensitivity, isoxaflutole (DKN), Rate ratio ON: inhibitor diketonitrile form of isoxaflutole (DKN); for Insensitivity, mesotrione, Rate ratio ON: inhibitor mesotrione; for Insensitivity, sulcotrione, Rate ratio ON: inhibitor sulcotrione; for Insensitivity, tembotrione, Rate ratio ON: inhibitor tembotrione; for Insensitivity, topramezone, Rate ratio ON: inhibitor topramezone
Procedure, shortened: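 Indicator of inhibitor on-rate: reaction velocity in the 70 to 90 second window with 4 μM inhibitor divided by that without. Reactions contained 100 μM HPP and 60 or 120 nM HPPD; slower binding gives a larger ratio.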

[3] = Table 7, tembotrione, combinatorial variants

B1: Z. mays wt: maize wild-type HPPD, SEQ ID NO:1 (glycine for proline at position 2) (protein)
chain: MGPTPTAAAAGAAVAAASAAEQAAFRLVGHRNFVRFNPRSDRFHTLAFHHVELWCADAASAAGRFSFGLGAPLAARSDLSTGNSAHASLLLRSGSLSFLFTAPYAHGADAATAALPSFSAAAARRFAADHGLAVRAVALRVADAEDAFRASVAAGARPAFGPVDLGRGFRLAEVELYGDVVLRYVSYPDGAAGEPFLPGFEGVASPGAADYGLSRFDHIVGNVPELAPAAAYFAGFTGFHEFAEFTTEDVGTAESGLNSMVLANNSENVLLPLNEPVHGTKRRSQIQTFLDHHGGPGVQHMALASDDVLRTLREMQARSAMGGFEFMAPPTSDYYDGVRRRAGDVLTEAQIKECQELGVLVDRDDQGVLLQIFTKPVGDRPTLFLEIIQRIGCMEKDEKGQEYQKGGCGGFGKGNFSQLFKSIEDYEKSLEAKQAAAAAAAQGS
modifications: Zea mays
OFF ratio (parameters with tembotrione) ([1]; tembotrione): 0.03 | Insensitivity, isoxaflutole (DKN), Rate ratio OFF [1]: 0.01 | Insensitivity, mesotrione, Rate ratio OFF [1]: 0.31 | Insensitivity, sulcotrione, Rate ratio OFF [1]: 0.28 | Insensitivity, tembotrione, Rate ratio OFF [1]: 0.04 | Insensitivity, topramezone, Rate ratio OFF [1]: 0.045 | OFF rate ratio ([1]; mesotrione): 0.31 | time span to reach the steady state (dissociation from inhibitor) ([1]; mesotrione, enzyme 240 nM): 280 s | ON ratio (parameters with tembotrione) ([2]; tembotrione): 0.17 | Insensitivity, isoxaflutole (DKN), Rate ratio ON [2]: 0.08 | Insensitivity, mesotrione, Rate ratio ON [2]: 0.20 | Insensitivity, sulcotrione, Rate ratio ON [2]: 0.30 | Insensitivity, tembotrione, Rate ratio ON [2]: 0.20 | Insensitivity, topramezone, Rate ratio ON [2]: 0.100 | ON rate ratio ([2]; mesotrione): 0.20 | ON rate ratio ([2]; mesotrione, listed as wild type): 0.2

B2: R7-9070: shuffled maize HPPD, Round 7, variant 9070 (SEQ ID NO:2); backbone for saturation mutagenesis (protein)
chain: MGPTPTATAAGAAVAAASAAEQAAFRLVGHRNFVRFNPRSDRFQTLAFHHVELWCADAASAAGRFSFALGVPLAARSDLSTGNSAHASLLLRSGSLSLLFTAPYAHGADAATAALPSFSAAAARRFAADHGLAVRAVALRVADAEDAFRASVAAGARPAFGPVDLGRGFRLAEVELYGDVVLRYVSYPDGAAGEPFLPGFEGVASPGAADYGLSRFDHIVGNVPELAPAAAYMAGFTGFHEFAEFTTEDVGTTESGLNSMALANNSENVLLPLNEPVHGTKRRSQIQTFLDHHGGPGVQHIALASDDVLRTLREMRARSAMGGFEFLPPPLSDYYDGVRRCAGDVLTEAQINECQELGVMVDRDDQGVLLQIFTKPVGDRPTFFLEIIQRIGCMEKDEKGQEYQKGGCGGFGKGNFGQLFKSIEDYEKSLEAKQAAAAATAQGS
modifications: Zea mays variant form created by artificial means.
notes: backbone for saturation mutagenesis
OFF ratio (parameters with tembotrione) ([1]; tembotrione): 0.21 | OFF rate ratio [1, 3]: 0.116 | Insensitivity, isoxaflutole (DKN), Rate ratio OFF [1]: 0.20 | Insensitivity, mesotrione, Rate ratio OFF [1]: 0.89 | Insensitivity, sulcotrione, Rate ratio OFF [1]: 0.71 | Insensitivity, tembotrione, Rate ratio OFF [1]: 0.22 | Insensitivity, topramezone, Rate ratio OFF [1]: 0.25 | OFF rate ratio ([1]; mesotrione): 0.83 | ON ratio (parameters with tembotrione) ([2]; tembotrione): 0.74 | ON rate ratio [2, 3]: 0.744 | Insensitivity, isoxaflutole (DKN), Rate ratio ON [2]: 0.82 | Insensitivity, mesotrione, Rate ratio ON [2]: 0.66 | Insensitivity, sulcotrione, Rate ratio ON [2]: 0.81 | Insensitivity, tembotrione, Rate ratio ON [2]: 0.80 | Insensitivity, topramezone, Rate ratio ON [2]: 0.79 | ON rate ratio ([2]; mesotrione): 0.67

B3: P056028-G-01 (protein)
chain: B2 chain with Y211L, S214N, R340K, Q366E, A432K, Q434R
modifications: Zea mays variant form created by artificial means.
OFF rate ratio [1, 3]: 0.320 | Insensitivity, isoxaflutole (DKN), Rate ratio OFF [1]: 0.42 | Insensitivity, mesotrione, Rate ratio OFF [1]: 1.00 | Insensitivity, sulcotrione, Rate ratio OFF [1]: 1.14 | Insensitivity, tembotrione, Rate ratio OFF [1]: 0.47 | Insensitivity, topramezone, Rate ratio OFF [1]: 0.57 | ON rate ratio [2, 3]: 0.742 | Insensitivity, isoxaflutole (DKN), Rate ratio ON [2]: 0.77 | Insensitivity, mesotrione, Rate ratio ON [2]: 0.71 | Insensitivity, sulcotrione, Rate ratio ON [2]: 0.78 | Insensitivity, tembotrione, Rate ratio ON [2]: 0.77 | Insensitivity, topramezone, Rate ratio ON [2]: 0.80

B4: P056028-G-01R (protein)
chain: B2 chain with Y211L, S214N, R340K, Q366E, M394R, A432K, Q434R
modifications: Zea mays variant form created by artificial means.
OFF rate ratio [1, 3]: 0.280 | Insensitivity, isoxaflutole (DKN), Rate ratio OFF [1]: 0.38 | Insensitivity, mesotrione, Rate ratio OFF [1]: 1.00 | Insensitivity, sulcotrione, Rate ratio OFF [1]: 1.11 | Insensitivity, tembotrione, Rate ratio OFF [1]: 0.28 | Insensitivity, topramezone, Rate ratio OFF [1]: 0.53 | ON rate ratio [2, 3]: 0.719 | Insensitivity, isoxaflutole (DKN), Rate ratio ON [2]: 0.77 | Insensitivity, mesotrione, Rate ratio ON [2]: 0.73 | Insensitivity, sulcotrione, Rate ratio ON [2]: 0.75 | Insensitivity, tembotrione, Rate ratio ON [2]: 0.72 | Insensitivity, topramezone, Rate ratio ON [2]: 0.81

B5: P056028-B-02 (protein)
chain: B2 chain with P206S, E356K, Q366E, K428R, A438V
modifications: Zea mays variant form created by artificial means.
OFF rate ratio [1, 3]: 0.469 | Insensitivity, isoxaflutole (DKN), Rate ratio OFF [1]: 0.43 | Insensitivity, mesotrione, Rate ratio OFF [1]: 1.00 | Insensitivity, sulcotrione, Rate ratio OFF [1]: 1.00 | Insensitivity, tembotrione, Rate ratio OFF [1]: 0.47 | Insensitivity, topramezone, Rate ratio OFF [1]: 0.53 | ON rate ratio [2, 3]: 0.800 | Insensitivity, isoxaflutole (DKN), Rate ratio ON [2]: 0.80 | Insensitivity, mesotrione, Rate ratio ON [2]: 0.63 | Insensitivity, sulcotrione, Rate ratio ON [2]: 0.81 | Insensitivity, tembotrione, Rate ratio ON [2]: 0.80 | Insensitivity, topramezone, Rate ratio ON [2]: 0.79

B6: P056028-A-03 (protein)
chain: B2 chain with A191G, Y211L, Q366E, A432R, Q434R
modifications: Zea mays variant form created by artificial means.
OFF rate ratio [1, 3]: 0.243 | Insensitivity, isoxaflutole (DKN), Rate ratio OFF [1]: 0.43 | Insensitivity, mesotrione, Rate ratio OFF [1]: 1.00 | Insensitivity, sulcotrione, Rate ratio OFF [1]: 0.93 | Insensitivity, tembotrione, Rate ratio OFF [1]: 0.40 | Insensitivity, topramezone, Rate ratio OFF [1]: 0.47 | ON rate ratio [2, 3]: 0.748 | Insensitivity, isoxaflutole (DKN), Rate ratio ON [2]: 0.81 | Insensitivity, mesotrione, Rate ratio ON [2]: 0.70 | Insensitivity, sulcotrione, Rate ratio ON [2]: 0.80 | Insensitivity, tembotrione, Rate ratio ON [2]: 0.80 | Insensitivity, topramezone, Rate ratio ON [2]: 0.81

B7: P056028-D-03 (protein)
chain: B2 chain with L182M, S214N, Q366E
modifications: Zea mays variant form created by artificial means.
OFF rate ratio [1, 3]: 0.453 | Insensitivity, isoxaflutole (DKN), Rate ratio OFF [1]: 0.40 | Insensitivity, mesotrione, Rate ratio OFF [1]: 1.00 | Insensitivity, sulcotrione, Rate ratio OFF [1]: 1.11 | Insensitivity, tembotrione, Rate ratio OFF [1]: 0.45 | Insensitivity, topramezone, Rate ratio OFF [1]: 0.58 | ON rate ratio [2, 3]: 0.770 | Insensitivity, isoxaflutole (DKN), Rate ratio ON [2]: 0.76 | Insensitivity, mesotrione, Rate ratio ON [2]: 0.68 | Insensitivity, sulcotrione, Rate ratio ON [2]: 0.76 | Insensitivity, tembotrione, Rate ratio ON [2]: 0.77 | Insensitivity, topramezone, Rate ratio ON [2]: 0.80

B8: P056028-B-09 (protein)
chain: B2 chain with G337D, Q366E, M394V, Q434R
modifications: Zea mays variant form created by artificial means.
OFF rate ratio [1, 3]: 0.187 | Insensitivity, isoxaflutole (DKN), Rate ratio OFF [1]: 0.33 | Insensitivity, mesotrione, Rate ratio OFF [1]: 1.00 | Insensitivity, sulcotrione, Rate ratio OFF [1]: 0.88 | Insensitivity, tembotrione, Rate ratio OFF [1]: 0.35 | Insensitivity, topramezone, Rate ratio OFF [1]: 0.48 | ON rate ratio [2, 3]: 0.648 | Insensitivity, isoxaflutole (DKN), Rate ratio ON [2]: 0.77 | Insensitivity, mesotrione, Rate ratio ON [2]: 0.67 | Insensitivity, sulcotrione, Rate ratio ON [2]: 0.78 | Insensitivity, tembotrione, Rate ratio ON [2]: 0.75 | Insensitivity, topramezone, Rate ratio ON [2]: 0.80

B9: 9070Q366E (protein)
chain: B2 chain with Q366E
modifications: Zea mays variant form created by artificial means.
OFF rate ratio [1, 3]: 0.273 | Insensitivity, isoxaflutole (DKN), Rate ratio OFF [1]: 0.39 | Insensitivity, mesotrione, Rate ratio OFF [1]: 1.00 | Insensitivity, sulcotrione, Rate ratio OFF [1]: 1.13 | Insensitivity, tembotrione, Rate ratio OFF [1]: 0.33 | Insensitivity, topramezone, Rate ratio OFF [1]: 0.57 | ON rate ratio [2, 3]: 0.760 | Insensitivity, isoxaflutole (DKN), Rate ratio ON [2]: 0.83 | Insensitivity, mesotrione, Rate ratio ON [2]: 0.72 | Insensitivity, sulcotrione, Rate ratio ON [2]: 0.80 | Insensitivity, tembotrione, Rate ratio ON [2]: 0.82 | Insensitivity, topramezone, Rate ratio ON [2]: 0.81

B10: P056028-A-01 (protein)
chain: B2 chain with Q366E, Q434R
modifications: Zea mays variant form created by artificial means.
OFF rate ratio [1, 3]: 0.249 | Insensitivity, isoxaflutole (DKN), Rate ratio OFF [1]: 0.44 | Insensitivity, mesotrione, Rate ratio OFF [1]: 1.00 | Insensitivity, sulcotrione, Rate ratio OFF [1]: 1.22 | Insensitivity, tembotrione, Rate ratio OFF [1]: 0.43 | Insensitivity, topramezone, Rate ratio OFF [1]: 0.60 | ON rate ratio [2, 3]: 0.697 | Insensitivity, isoxaflutole (DKN), Rate ratio ON [2]: 0.82 | Insensitivity, mesotrione, Rate ratio ON [2]: 0.67 | Insensitivity, sulcotrione, Rate ratio ON [2]: 0.80 | Insensitivity, tembotrione, Rate ratio ON [2]: 0.84 | Insensitivity, topramezone, Rate ratio ON [2]: 0.85
